The record followed here is paper doi:10.1101/2023.08.28.555145.

Assay [1] has as its target Arabidopsis uracil phosphoribosyltransferase (UPP), wild type, recombinant (Arabidopsis thaliana). In words: SEC.
Assay [2] deals with UPP-G224L, recombinant (Arabidopsis thaliana). Description: SEC.

On to “Arabidopsis uracil phosphoribosyltransferase (UPP), wild type, recombinant (enzyme)”, for which the stoichiometry N in assay [1] is 4.
UPP-G224L, recombinant (enzyme): the stoichiometry N in assay [2] amounted to 2.
